One may read the Kd as the constant that tells how readily two partners part at equilibrium. As usually defined, the IC50 is the concentration that inhibits the measured activity by half.

The record followed here is patent US20240425603A1 (Janssen / Centocor, published 2024).

A value given as a limit tells only on which side of the number the result lay.

B2: human VEGFA165 (ligand, UniProt P15692-4 27-191, looked up)
chain: APMAEGGGQNHHEVVKFMDVYQRSYCHPIETLVDIFQEYPDEIEYIFKPSCVPLMRCGGCCNDEGLECVPTEESNITMQIMRIKPHQGQHIGEMSFLQHNKCECRPKKDRARQENPCGPCSERRKHLFVQDPQTCKCSCKNTDSRCKARQLELNERTCRCDKPRR
notes: used unlabeled and biotin labeled; also called human VEGF165 (R&D Systems); hVEGFA165

In experiment [1] the target is B2. Put plainly: SPR; VEGFR1 D2 alone. In general terms: Surface plasmon resonance follows binding to a sensor surface in real time, without labels.
The target in experiment [2] is B2. The experiment in a line: SPR; against the D1-D3 and D2-D3 constructs.
The target of experiment [3] is recombinant human VEGFR1 (D1-D3) (human, UniProt P17948 27-328, limits assumed). Put plainly: SPR; VEGFR1 D1-D3.
In experiment [4] the target is human VEGFR1 (D2-D3) (human, UniProt P17948 130-331). Put plainly: SPR; VEGFR1 D2-D3.
In experiment [5] the target is T1, Recombinant human VEGFR1-Fc (R&D Systems) (human, UniProt P17948 27-687, limits assumed).
T1 construct: bought; not shown: Fc part of the bought fusion, not described
The experiment in a line: MSD ECL competition on plate-bound human VEGFR1-Fc; competitor biotin human VEGFA165 (0.2 nM). In short, it runs like this:
(§1)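 MSD 384 plates were coated with Protein A/G or anti-His mAb, blocked with Blocker A, and used to capture human or mouse VEGFR1-Fc or His-tagged cyno VEGFR1 at 0.5 ug/ml for 1 hour at room temperature. Antibody in half-log dilutions was pre-incubated for 30 minutes, after which biotinylated VEGFA (0.2 nM) or PlGF (2 nM) was added. Bound ligand was detected with Sulfo-tagged streptavidin on an MSD SECTOR S 600 imager, and IC50 and maximal percent inhibition were derived from the electro-chemiluminescence signal.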

For experiment [6], the target named is T2, His tagged cyno VEGFR1 (cynomolgus monkey, UniProt A0A2K5VAF2 27-758). Put plainly: MSD ECL competition on plate-bound His-tagged cyno VEGFR1; competitor biotin human VEGFA165 (0.2 nM). In short, it runs like this: as §1
The target of experiment [7] is T3, Recombinant mouse VEGFR1-Fc (R&D Systems) (mouse, UniProt P35969 27-759, limits assumed).
T3 construct: bought; not shown: Fc part of the bought fusion, not described
T3 sequence (looked up): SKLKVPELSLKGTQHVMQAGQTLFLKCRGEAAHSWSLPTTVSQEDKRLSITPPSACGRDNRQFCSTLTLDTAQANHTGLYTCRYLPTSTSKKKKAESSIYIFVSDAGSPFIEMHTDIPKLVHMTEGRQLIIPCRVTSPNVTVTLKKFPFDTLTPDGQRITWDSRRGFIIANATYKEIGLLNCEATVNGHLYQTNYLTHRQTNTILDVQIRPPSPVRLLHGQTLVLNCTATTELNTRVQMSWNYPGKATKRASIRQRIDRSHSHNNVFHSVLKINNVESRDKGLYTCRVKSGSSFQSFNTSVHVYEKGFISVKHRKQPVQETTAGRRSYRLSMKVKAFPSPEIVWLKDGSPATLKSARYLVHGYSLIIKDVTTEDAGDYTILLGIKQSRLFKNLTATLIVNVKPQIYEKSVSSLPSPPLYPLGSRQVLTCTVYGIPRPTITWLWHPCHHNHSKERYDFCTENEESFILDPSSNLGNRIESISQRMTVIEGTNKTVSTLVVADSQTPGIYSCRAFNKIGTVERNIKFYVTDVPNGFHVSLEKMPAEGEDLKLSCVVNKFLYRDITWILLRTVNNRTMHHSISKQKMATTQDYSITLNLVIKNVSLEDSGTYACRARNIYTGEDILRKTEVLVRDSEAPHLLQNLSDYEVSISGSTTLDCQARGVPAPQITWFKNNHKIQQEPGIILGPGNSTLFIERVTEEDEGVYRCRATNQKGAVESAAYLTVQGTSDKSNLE
The experiment in a line: MSD ECL competition on plate-bound mouse VEGFR1-Fc; competitor biotin mouse VEGFA164 (0.2 nM). Summed up: as §1

Experiment [8] has as its target T1, Recombinant human VEGFR1-Fc (R&D …). Put plainly: MSD ECL competition on plate-bound human VEGFR1-Fc; competitor biotin PlGF (2 nM). Summed up: as §1
In experiment [9] the target is T2, His tagged cyno VEGFR1. The experiment in a line: MSD ECL competition on plate-bound His-tagged cyno VEGFR1; competitor biotin human PlGF (2 nM). Summed up: as §1
Experiment [10] has as its target human VEGFR1 (soluble antigen of the KinExA and SPR affinity assays) (human, UniProt P17948 27-758, limits assumed). Put plainly: KinExA, solution. As to the method: (§2) Kinetic exclusion assay (KEA; KinExA) was used to analyze the binding of anti-VEGFR1 antibodies to human, mouse and cynomolgus monkeys VEGFR1. KEA is a fluorescence-based solution method, and it is described in detail in the literature (Darling and Brault, 2004). To measure the affinity of an interaction, a series of solutions with a fixed concentration of one interactant (A) and varying concentrations of another interactant (B) are prepared and allowed to reach equilibrium. After equilibration, the concentration of free A is determined by flowing the equilibrated mixture through a column packed with beads modified with reactant B. Free A binds to the beads and is then detected using a fluorescently labeled polyclonal antibody.
(§3) Briefly, fixed concentrations (300 pM, 60 pM, 12 pM, 2.4 or 0.5 pM) of Ab were used to prepare a serial dilution of the antigen (2 nM to 0.52 pM, or 800 pM to 5.37 fM). The complex titrations were incubated at RT to reach binding equilibrium for at least 2 days. After incubation, the samples were run on the KinExA3200 or KinExA4000 instrument to assess free antibody in the reaction. During these studies some of the data were rejected because the experiments failed or failed the acceptance criteria. For mouse VEGFR1 the 60 and 300 pM concentrations were rejected due to high titrant related NSB. The dissociation equilibrium constant, (KD), was determined using the n-curve analysis feature of the KinExA Pro software. This program uses nonlinear least-square regression analysis of the globally fitted data to a 1:1 binding model. (CI=confidence interval).

The target of experiment [11] is cynomolgus monkey VEGFR1 (soluble antigen of the KinExA and SPR affinity assays) (cynomolgus monkey). The experiment in a line: KinExA, solution. As to the method: as §2, §3
In general terms: A kinetic exclusion assay measures how much of one partner remains free in solution.

Experiment [12] has as its target T4, mouse VEGFR1 (soluble antigen of the KinExA and SPR affinity assays) (mouse, UniProt P35969 23-759, limits assumed).
T4 sequence (looked up): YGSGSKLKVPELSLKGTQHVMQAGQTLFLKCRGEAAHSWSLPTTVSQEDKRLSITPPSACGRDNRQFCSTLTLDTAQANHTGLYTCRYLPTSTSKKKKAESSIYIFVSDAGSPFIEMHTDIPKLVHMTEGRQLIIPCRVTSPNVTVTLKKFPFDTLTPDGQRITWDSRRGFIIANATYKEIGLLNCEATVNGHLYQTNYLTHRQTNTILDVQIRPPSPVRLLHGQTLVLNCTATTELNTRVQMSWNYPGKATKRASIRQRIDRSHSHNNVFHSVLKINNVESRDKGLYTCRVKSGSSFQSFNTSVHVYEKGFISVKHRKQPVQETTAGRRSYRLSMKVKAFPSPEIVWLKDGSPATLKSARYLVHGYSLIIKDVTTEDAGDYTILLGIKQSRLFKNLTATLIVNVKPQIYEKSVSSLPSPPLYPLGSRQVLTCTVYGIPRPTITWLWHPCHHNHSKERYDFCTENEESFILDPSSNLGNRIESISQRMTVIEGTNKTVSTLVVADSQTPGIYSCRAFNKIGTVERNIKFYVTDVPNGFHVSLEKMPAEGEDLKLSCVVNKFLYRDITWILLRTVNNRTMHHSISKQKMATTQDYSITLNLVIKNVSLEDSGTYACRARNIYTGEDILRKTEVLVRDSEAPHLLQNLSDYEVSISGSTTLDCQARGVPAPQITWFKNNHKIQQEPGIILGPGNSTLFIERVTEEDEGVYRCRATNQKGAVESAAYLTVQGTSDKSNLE
Put plainly: KinExA, solution. As for the experimental part:
as §2, §3

In experiment [13] the target is T5, human VEGFR1, full length, over-expressed on cells (human, UniProt P17948 27-1338).
T5 construct: on CHO-K1 or HEK cells; also called hVEGFR1; CHOK1/ human VEGFR1
The experiment in a line: cell binding assay (column head prints IC50).

Experiment [14] concerns the target T1, Recombinant human VEGFR1-Fc (R&D …). The experiment in a line: biochemical ligand blocking assay; ligand and receptor form not given. In short, it runs like this:
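In a biochemical electro-chemiluminescence ligand blocking assay, Protein A/G-coated MSD plates captured recombinant VEGFR1-Fc, which was pre-incubated with half-log dilutions of each antibody for 30 minutes. Biotinylated ligand was added next and detected with Sulfo-tagged streptavidin on an MSD imager. The readings were used to calculate IC50.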

T1 sequence (P17948 27-687 limits assumed): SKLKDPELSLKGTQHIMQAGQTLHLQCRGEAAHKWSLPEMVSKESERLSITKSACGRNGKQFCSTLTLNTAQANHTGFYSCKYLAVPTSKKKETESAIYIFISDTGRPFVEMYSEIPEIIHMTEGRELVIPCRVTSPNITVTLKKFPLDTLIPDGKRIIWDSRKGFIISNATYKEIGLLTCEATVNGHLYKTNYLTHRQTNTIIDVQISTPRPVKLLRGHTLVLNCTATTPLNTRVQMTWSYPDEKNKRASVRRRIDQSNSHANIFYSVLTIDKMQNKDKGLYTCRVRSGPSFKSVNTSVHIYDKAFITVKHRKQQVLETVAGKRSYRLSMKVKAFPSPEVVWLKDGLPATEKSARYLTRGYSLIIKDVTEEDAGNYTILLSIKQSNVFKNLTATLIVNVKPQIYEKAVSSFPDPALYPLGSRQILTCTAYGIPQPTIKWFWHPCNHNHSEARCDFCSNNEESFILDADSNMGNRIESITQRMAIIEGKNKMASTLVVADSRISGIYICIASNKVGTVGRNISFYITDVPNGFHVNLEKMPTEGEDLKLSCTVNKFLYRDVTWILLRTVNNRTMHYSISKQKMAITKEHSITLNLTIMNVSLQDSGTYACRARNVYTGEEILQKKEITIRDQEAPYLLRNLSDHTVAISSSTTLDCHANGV
Sequence of human VEGFR1 (soluble antigen of the KinExA and SPR affinity assays) (P17948 27-758 limits assumed): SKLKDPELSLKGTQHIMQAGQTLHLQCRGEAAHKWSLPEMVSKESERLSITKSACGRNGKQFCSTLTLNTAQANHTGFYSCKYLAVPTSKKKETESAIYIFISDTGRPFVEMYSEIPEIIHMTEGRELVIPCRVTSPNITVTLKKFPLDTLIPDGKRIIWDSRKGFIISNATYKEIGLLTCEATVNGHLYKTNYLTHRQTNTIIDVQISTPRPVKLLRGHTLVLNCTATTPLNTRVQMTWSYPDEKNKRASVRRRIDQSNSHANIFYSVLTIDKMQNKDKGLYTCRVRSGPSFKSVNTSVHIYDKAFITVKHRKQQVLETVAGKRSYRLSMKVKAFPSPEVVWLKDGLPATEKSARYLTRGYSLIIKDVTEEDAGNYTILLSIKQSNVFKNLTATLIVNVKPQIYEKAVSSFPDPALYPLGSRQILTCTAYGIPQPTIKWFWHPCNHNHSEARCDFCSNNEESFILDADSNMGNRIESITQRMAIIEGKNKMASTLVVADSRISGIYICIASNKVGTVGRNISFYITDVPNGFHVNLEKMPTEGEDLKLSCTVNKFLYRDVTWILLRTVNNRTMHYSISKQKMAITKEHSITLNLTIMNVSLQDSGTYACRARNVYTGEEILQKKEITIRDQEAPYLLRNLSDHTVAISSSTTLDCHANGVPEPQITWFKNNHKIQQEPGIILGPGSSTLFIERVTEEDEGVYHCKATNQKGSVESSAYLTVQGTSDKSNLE
T5 sequence (P17948 27-1338 limits assumed): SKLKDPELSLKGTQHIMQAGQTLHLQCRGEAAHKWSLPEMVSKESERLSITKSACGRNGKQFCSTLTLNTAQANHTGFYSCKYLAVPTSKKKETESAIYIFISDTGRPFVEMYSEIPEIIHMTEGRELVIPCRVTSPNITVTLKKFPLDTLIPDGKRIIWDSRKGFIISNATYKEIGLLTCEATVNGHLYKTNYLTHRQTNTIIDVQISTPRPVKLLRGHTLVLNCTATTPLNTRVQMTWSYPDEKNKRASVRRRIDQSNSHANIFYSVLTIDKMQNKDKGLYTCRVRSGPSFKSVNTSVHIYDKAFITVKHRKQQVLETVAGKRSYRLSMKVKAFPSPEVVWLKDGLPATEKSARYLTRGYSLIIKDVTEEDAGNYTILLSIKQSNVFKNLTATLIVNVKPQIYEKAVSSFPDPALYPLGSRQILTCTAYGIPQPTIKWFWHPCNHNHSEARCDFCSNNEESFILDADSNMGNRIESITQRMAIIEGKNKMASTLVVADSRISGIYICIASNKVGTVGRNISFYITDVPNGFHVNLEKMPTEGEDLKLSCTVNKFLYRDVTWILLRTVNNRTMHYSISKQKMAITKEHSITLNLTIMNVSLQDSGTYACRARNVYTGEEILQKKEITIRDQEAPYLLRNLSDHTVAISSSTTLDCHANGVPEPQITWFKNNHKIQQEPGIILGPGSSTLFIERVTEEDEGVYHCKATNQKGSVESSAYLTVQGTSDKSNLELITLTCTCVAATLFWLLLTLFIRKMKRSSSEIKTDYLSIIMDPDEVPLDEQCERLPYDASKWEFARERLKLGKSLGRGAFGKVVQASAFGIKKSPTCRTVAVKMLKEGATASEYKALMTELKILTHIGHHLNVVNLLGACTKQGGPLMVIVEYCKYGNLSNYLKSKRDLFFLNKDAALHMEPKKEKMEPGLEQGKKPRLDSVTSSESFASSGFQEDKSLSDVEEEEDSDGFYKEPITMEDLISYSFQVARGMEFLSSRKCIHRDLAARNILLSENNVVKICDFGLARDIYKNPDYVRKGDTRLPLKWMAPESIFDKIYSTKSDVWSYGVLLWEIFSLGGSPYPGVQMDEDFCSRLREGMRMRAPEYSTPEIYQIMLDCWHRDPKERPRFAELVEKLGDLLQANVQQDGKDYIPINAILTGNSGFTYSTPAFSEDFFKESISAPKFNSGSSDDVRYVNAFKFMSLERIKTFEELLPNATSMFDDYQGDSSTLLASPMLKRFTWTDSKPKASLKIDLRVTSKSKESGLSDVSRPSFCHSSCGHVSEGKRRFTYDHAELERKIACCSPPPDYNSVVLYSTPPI
Sequence of recombinant human VEGFR1 (D1-D3) (P17948 27-328 limits assumed): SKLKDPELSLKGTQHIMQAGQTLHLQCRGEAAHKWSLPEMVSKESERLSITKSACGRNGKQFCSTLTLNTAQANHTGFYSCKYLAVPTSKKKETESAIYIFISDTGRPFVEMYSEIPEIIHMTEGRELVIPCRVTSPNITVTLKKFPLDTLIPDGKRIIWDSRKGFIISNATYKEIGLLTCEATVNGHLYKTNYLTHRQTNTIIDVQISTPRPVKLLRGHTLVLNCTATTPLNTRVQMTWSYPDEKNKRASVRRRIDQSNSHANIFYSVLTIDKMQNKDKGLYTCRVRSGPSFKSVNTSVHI

B1: Domain 2 of hVEGFR1 alone (receptor)
chain: DTGRPFVEMYSEIPEIIHMTEGRELVIPCRVTSPNITVTLKKFPLDTLIPDGKRIIWDSRKGFIISNATYKEIGLLTCEATVNGHLYKTNYLTHRQ
notes: also called human VEGFR1 D2
Molecule B1 came in with a Kd in experiment [1] of 22 nM. The “fold reduction in affinity” value in experiment [2] was approximately 1000 fold.

For B2, the equilibrium dissociation constant (Kd) is less than 0.045 nM in experiment [3] and less than 0.03 nM in experiment [4]. Moreover, the figures for the IC50 in experiment [5] and in experiment [6] were 0.156 nM and 0.261 nM, respectively. The “Max % Inh.” value in [5] and in experiment [6] was 100% throughout.

B3: mouse VEGFA164 (ligand, UniProt Q00731-2 27-190, looked up)
chain: APTTEGEQKSHEVIKFMDVYQRSYCRPIETLVDIFQEYPDEIEYIFKPSCVPLMRCAGCCNDEALECVPTSESNITMQIMRIKPHQSQHIGEMSFLQHSRCECRPKKDRTKPENHCEPCSERRKHLFVQDPQTCKCSCKNTDSRCKARQLELNERTCRCDKPRR
notes: also called VEGFA (mouse VEGFR1 columns)
Regarding B3, in experiment [7], the IC50 came out at 0.15 nM and the “Max % Inh.” value was 99.9%.

B4: human PlGF (ligand, UniProt P49763-2 19-149, looked up)
chain: LPAVPPQQWALSAGNGSSEVEVVPFQEVWGRSYCRALERLVDVVSEYPSEVEHMFSPSCVSLLRCTGCCGDENLHCVPVETANVTMQLLKIRSGDRPSYVELTFSQHVRCECRPLREKMKPERCGDAVPRR
notes: ligand on human and cyno VEGFR1; also called placental growth factor
Take B4: in experiment [8], the IC50 was 8.92 nM and the “Max % Inh.” value was found to be 98.6%. In [9], the IC50 amounted to 13.3 nM and the “Max % Inh.” value turned out to be 99.2%.

B5: VGFB883 (antibody, human IgG1, lambda, L234A L235A, V domains shown)
VH: EVQLLESGGGSVQPGGSLRLSCTASGFNFEDYGMNWVRQAPGKGLDWVSSINRQGDISTYHVDSVKGRFTISRDNSKNTLYLQMNSLRAEDTAIYYCTKNHDYHGMDVWGQGTTVTVSS
VL: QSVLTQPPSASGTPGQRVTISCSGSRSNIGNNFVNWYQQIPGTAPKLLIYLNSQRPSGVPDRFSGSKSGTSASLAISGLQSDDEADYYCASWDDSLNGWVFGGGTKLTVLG
notes: human IgG1 (L234A/L235A/D265S); also called N54Q variant of VGFB54
B5: the Kd in experiment [10] was approximately 0.2 pM; in [11] it was approximately 0.5 pM; in [12], more than 2 nM. Further, the results for the IC50 in experiment [13] and in experiment [14] were 0.0655 nM and 0.044 nM, respectively.
